The source of these data is paper PMC5435312, “DNA recognition by an RNA-guided bacterial Argonaute”.

The series has as its target T1, MpAgo D516A (Marinitoga piezophila, UniProt H2J4R4 1-639, D516A).
T1 sequence: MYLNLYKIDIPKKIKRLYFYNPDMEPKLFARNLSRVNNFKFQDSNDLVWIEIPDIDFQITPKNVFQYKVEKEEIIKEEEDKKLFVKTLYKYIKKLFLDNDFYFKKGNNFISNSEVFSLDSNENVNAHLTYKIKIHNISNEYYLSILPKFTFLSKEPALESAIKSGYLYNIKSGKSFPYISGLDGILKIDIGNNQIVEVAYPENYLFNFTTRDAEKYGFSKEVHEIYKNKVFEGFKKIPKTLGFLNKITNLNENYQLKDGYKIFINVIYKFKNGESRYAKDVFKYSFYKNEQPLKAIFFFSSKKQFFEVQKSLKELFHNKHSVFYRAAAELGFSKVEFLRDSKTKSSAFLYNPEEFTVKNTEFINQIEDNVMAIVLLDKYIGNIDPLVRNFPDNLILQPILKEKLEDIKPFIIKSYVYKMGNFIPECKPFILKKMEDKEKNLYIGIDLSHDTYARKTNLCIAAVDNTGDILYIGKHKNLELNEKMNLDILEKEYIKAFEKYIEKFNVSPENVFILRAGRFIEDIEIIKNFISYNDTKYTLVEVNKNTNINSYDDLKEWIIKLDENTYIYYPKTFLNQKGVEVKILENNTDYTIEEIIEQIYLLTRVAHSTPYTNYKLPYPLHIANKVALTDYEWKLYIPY
The series is described as follows: X-ray crystallography (3.2 A); 0.1 M MES pH 7.0, 275 mM KI, 27% PEG 4000; guide RNA 1.2x, target equimolar to guide; Crystallization: 0.1 M MES pH 7.0, 275 mM KI, 27% (w/v) PEG 4000, 18 C; protein about 3.5 mg/ml in complex; mismatch guides assayed by cleavage only (no binding read-out). As to conditions: protein: recombinant; tags: His10-Asn10-MBP tag removed by PreScission protease; 21 nt guide and 21 nt target, fully complementary; in the complex guide nt 1 and target C21 are unpaired, 20 bp modeled.

B1: 21 nt RNA guide / 21 nt DNA target (DNA:RNA)
RNA: GGUACAACCUACUACCUCAUU
DNA: AATGAGGTAGTAGGTTGTACC
modifications: 5'-OH RNA guide; 5'-phosphate DNA target
Regarding B1, the binding result is given as “binds”.
